US20260125457A1 (Janssen / Centocor, published 2026)

Legend:
[1] = target: T1, CALRins5 (mutant calreticulin, 5 base pair insertion, Type 2) expressed with MPL on engineered cancer cells (UniProt P27797 18-417); experiment: flow cytometry on OCI-M2 MPL CALRins5 cells, 1 h at 37 C, AF647 secondary antibody, Geometric mean
T1 construct: whole, on cells; On the cell surface in complex with MPL; also called OCI-M2 MPL CALRins5
T1 sequence (looked up): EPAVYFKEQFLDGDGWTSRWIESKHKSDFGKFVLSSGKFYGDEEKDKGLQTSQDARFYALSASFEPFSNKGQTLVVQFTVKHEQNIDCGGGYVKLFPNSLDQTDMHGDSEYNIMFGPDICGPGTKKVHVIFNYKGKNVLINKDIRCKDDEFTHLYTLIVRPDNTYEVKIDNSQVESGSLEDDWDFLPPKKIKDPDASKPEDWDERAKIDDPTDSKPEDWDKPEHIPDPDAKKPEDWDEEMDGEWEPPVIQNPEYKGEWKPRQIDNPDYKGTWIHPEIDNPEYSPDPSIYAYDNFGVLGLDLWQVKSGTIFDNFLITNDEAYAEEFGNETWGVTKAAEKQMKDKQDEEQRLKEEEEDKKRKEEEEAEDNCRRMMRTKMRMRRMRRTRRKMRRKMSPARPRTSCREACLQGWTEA
Procedure: FIGS. 27A-27F depict binding of different CALRmutxCD3 antibodies to CALRmut-negative or CALRmut-positive cells. Flow cytometry was used to evaluate CALRmutxCD3 binding to CALRmut-negative and CALRmut-positive cancer cells in vitro. CALRmutxCD3 antibodies were tested on a panel of cell lines, engineered to express MPL and CALRmut, after 1 hour 37° C. incubation, with subsequent incubation with secondary AF647-labeled antibody. Geometric mean fluorescence intensity of AF647 was measured to determine antibody binding.

[2] = target: T1, CALRins5 (mutant calreticulin, 5 base …); experiment: cell-based or functional assay
[3] = target: T2, CALRdel52 (mutant calreticulin, 52 base pair deletion, Type 1) expressed with MPL on engineered cancer cells (UniProt P27797 18-417); experiment: cell-based or functional assay
T2 sequence (looked up): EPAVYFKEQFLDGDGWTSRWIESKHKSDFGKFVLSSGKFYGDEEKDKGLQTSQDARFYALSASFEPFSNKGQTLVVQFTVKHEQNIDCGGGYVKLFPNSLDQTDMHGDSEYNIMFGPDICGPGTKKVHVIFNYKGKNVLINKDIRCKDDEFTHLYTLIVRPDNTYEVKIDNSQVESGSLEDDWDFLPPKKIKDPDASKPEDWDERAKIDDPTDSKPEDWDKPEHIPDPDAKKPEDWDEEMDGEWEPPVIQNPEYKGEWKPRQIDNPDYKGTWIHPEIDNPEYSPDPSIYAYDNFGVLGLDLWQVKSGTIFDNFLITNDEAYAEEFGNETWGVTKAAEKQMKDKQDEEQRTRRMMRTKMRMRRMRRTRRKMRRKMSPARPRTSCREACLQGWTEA

[4] = target: T3, Avi/his-CalR-Ins5 (CALRW28.004) (human, UniProt P27797 18-417, limits assumed); experiment: SPR, forced degradation: Physiological
T3 construct: also called human CALRins5
T3 sequence (looked up): T1 sequence (looked up)

[5] = target: T4, CD3 on primary human pan T cells (human, UniProt P07766 23-207); experiment: flow cytometry on pan CD3 T cells, 1 h at 37 C, AF647 secondary antibody, Geometric Mean
T4 construct: whole, on cells; also called CD3e; CD3ε
Procedure: FIG. 22 depicts binding of different CALRmutxCD3 bispecific antibodies to pan CD3 T cells. Flow cytometry was used to evaluate CALRmutxCD3 binding to pan CD3 T cells in vitro, by 1 hour 37° C. incubation, with subsequent incubation with secondary AF647-labeled antibody. Geometric mean fluorescence intensity of AF647 was measured to determine antibody binding.
Flow cytometry was used to evaluate the CD3 arm binding of CALRmutxCD3 antibodies listed in Table 21 to CD3+ pan T cells from healthy human donor. CALRmutxCD3 were tested after 1 hour 37° C. incubation with pan T cells.

[6] = target: T5, CD3EG-HSA-6xHis (CD3W220.002) (human, UniProt P07766 22-118; P09693 23-103); experiment: SPR, forced degradation: Release
T5 construct: also called human CD3; not shown: human serum albumin (HSA); 6xHis tag

[7] = target: T6, Flag/6xhis-CALRdel52 (CALRW12.007) (human, UniProt P27797 18-417); experiment: SPR, forced degradation: Release
T6 construct: also called human CALRdel52
T6 sequence (looked up): T2 sequence (looked up)

[8] = target: T3, Avi/his-CalR-Ins5 (CALRW28.004); experiment: SPR, forced degradation: Release
[9] = target: T7, wild-type calreticulin (CALRwt) expressed with MPL in engineered cancer cells (UniProt P27797 18-417, limits assumed); experiment: flow cytometry on OCI-M2 MPL CALRwt cells, 1 h at 37 C, AF647 secondary antibody, Geometric Mean
T7 construct: whole, on cells; also called OCI-M2 MPL CALRwt
T7 sequence (looked up): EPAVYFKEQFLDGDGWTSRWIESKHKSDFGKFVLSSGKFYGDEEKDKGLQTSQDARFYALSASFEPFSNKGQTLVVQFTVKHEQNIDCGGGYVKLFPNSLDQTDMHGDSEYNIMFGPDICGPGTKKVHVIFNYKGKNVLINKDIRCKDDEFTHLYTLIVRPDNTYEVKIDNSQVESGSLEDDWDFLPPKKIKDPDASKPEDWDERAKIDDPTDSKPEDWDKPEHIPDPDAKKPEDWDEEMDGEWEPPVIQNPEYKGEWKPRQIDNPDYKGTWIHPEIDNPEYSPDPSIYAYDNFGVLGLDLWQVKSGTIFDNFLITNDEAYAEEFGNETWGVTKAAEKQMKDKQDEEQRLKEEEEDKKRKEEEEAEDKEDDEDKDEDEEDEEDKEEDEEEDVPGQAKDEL

human FcRn = target: T8, human FcRn (human, UniProt P55899 24-297; P61769 21-119, limits assumed); experiment: FcRn binding, method not stated
T8 construct: Beta-2-microglobulin is not mentioned

cyno FcRn = cyno FcRn (cynomolgus monkey, UniProt Q8SPV9 24-297; Q8SPW0 21-119, limits assumed); experiment: FcRn binding, method not stated
cyno FcRn, sequence (Q8SPV9 24-297 limits assumed, chain 1 of 2): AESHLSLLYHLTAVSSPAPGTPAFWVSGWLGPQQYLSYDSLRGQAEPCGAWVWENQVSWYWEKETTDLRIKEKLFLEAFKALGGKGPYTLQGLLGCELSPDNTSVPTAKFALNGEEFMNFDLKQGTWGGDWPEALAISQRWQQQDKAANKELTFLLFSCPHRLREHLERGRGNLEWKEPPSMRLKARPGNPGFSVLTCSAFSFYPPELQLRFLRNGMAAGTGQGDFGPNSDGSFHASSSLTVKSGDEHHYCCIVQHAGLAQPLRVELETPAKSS
cyno FcRn, sequence (Q8SPW0 21-119 limits assumed, chain 2 of 2): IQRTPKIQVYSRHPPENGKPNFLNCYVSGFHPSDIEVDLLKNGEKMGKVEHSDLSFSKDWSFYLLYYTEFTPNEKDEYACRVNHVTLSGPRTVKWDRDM

T5 sequence (P07766 other isoform, or with tags, fused parts or gaps): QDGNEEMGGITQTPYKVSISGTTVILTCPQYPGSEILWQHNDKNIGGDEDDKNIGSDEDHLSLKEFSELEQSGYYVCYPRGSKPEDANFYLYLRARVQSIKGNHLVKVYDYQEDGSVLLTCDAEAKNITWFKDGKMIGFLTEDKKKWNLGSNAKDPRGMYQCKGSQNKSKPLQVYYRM
T4 sequence (P07766 23-207): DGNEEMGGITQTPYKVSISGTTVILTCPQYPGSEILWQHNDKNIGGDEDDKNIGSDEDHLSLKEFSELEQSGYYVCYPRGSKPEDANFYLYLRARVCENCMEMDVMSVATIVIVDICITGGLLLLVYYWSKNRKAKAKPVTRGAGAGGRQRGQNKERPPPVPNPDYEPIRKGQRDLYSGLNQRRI

- EC50 (read off the curve) [1]: ~5 nM
- % Active [4]: 99%
- Kd [4]: 0.0622 nM
- EC50 (read off the curve) [5]: ~7 nM
- % Active [6]: 100%
- Kd [6]: 0.214 nM
- % Active [7]: 100%
- Kd [7]: 0.0602 nM
- % Active [8]: 100%
- Kd [8]: 0.0331 nM
- binding result [9]: no binding (tested: 100 nM)
- Kd (human FcRn): 1900 nM
- Kd (cyno FcRn): 900 nM
B1: C3CRB73 CALRmut x CD3 bispecific antibody (bispecific antibody, human IgG1, kappa, L234A L235A)
heavy: EVQLLESGGGLVQPGGSLRLSCAVSGIDLSNNAISWVRQAPGKGLEYVGVIGNTGDTYYADSAKGRFTISRDSSKTTLYLQMNSLRAEDTAVYFCVRGPPSYSSSVKNIWGQGTLVTVSSASTKGPSVFPLAPSSKSTSGGTAALGCLVKDYFPEPVTVSWNSGALTSGVHTFPAVLQSSGLYSLSSVVTVPSSSLGTQTYICNVNHKPSNTKVDKKVEPKSCDKTHTCPPCPAPEAAGGPSVFLFPPKPKDTLMISRTPEVTCVVVSVSHEDPEVKFNWYVDGVEVHNAKTKPREEQYNSTYRVVSVLTVLHQDWLNGKEYKCKVSNKALPAPIEKTISKAKGQPREPQVYTLPPSREEMTKNQVSLSCAVKGFYPSDIAVEWESNGQPENNYKTTPPVLDSDGSFFLVSKLTVDKSRWQQGNVFSCSVMHEALHNRFTQKSLSLSPGK
light: DIQMTQSPSSVSASVGDRVTITCQSSQSVYNNNWLSWLQQKPGKAPKRLIYDASKLESGVPSRFSGSGSGTDFTLTISSVQPEDAATYYCAGGFTGNVYTFGGGTKVEIKRTVAAPSVFIFPPSDEQLKSGTASVVCLLNNFYPREAKVQWKVDNALQSGNSQESVTEQDSKDSTYSLSSTLTLSKADYEKHKVYACEVTHQGLSSPVTKSFNRGEC
scFv: DIQMTQSPSSLSASVGDRVTITCRARQSIGTAIHWYQQKPGCAPKLLIKYASESISGVPSRFSGSGSGTDFTLTISSLQPEDFATYYCQQSGSWPYTFGQGTKLEIKGGGSGGSGGCPPCGGSGGEVQLVESGGGLVKPGGSLRLSCAASGFTFSRYNMNWVRQAPGKGLEWVSSISTSSNYIYYADSVKGRFTFSRDNAKNSLDLQMSGLRAEDTAIYYCTRGWGPFDYWGCGTLVTVSSEPKSSDKTHTCPPCPAPEAAGGPSVFLFPPKPKDTLMISRTPEVTCVVVSVSHEDPEVKFNWYVDGVEVHNAKTKPREEQYNSTYRVVSVLTVLHQDWLNGKEYKCKVSNKALPAPIEKTISKAKGQPREPQVYTLPPSREEMTKNQVSLWCLVKGFYPSDIAVEWESNGQPENNYKTTPPVLDSDGSFFLYSKLTVDKSRWQQGNVFSCSVMHEALHNHYTQKSLSLSPGK
notes: IgG1-AAS; also called JNJ-88549968; CALRB421 Fab x CD3 spFv
- cytotoxicity EC50 (nM), whole blood of CALRmut MPN patients, ELF-153 MPL CALRins5 [2]: 0.64 nM
- cytotoxicity EC50 (nM), whole blood of healthy donors, ELF-153 MPL CALRins5 [2]: 0.32 nM
- cytotoxicity EC50 (nM), whole blood of CALRmut MPN patients, ELF-153 MPL CALRdel52 [3]: 0.66 nM
- cytotoxicity EC50 (nM), whole blood of healthy donors, ELF-153 MPL CALRdel52 [3]: 0.51 nM
